In article PMC2696619 one finds IC50 data, which are given here for one substance.

pIC50: −log10 of the molar value. Like-named read-outs stand apart in the source and are kept apart here.

The target of experiment [1] is human C3b (human) (UniProt P01024). The experiment can be described thus: radioligand binding.
For experiment [2] the target is unchanged. The experiment in a line: radioligand binding. The source holds these as a separate data set.

In general, pIC50 refers to the IC50 on a negative log10 scale, so that one unit is a factor of ten. Read a low pIC50 as a high IC50. On to “wildtype rH19-20 (recombinant domains 19-20 of factor H) (from UniProt P08603 1107-1231) (domain or fragment)”, for which the pIC50 was 6.70 in experiment [1] and 6.00 in experiment [2].
